Where a chain is given by its changes, count along the chain named.
B1: hz14A9-2.3 (antibody, human IgG4 S228P, kappa, V domains shown)
VH: QVQLVQSGAEVKKPGASVKVSCKVSGFNIEDDYIEWVRQAPGQGLEWMGRIDPANDKTKYAQKFQGRVTMTGDTSTNTVYMELSSLRSEDTAVYYCARPGLRRYYSMDYWGQGTLVTVSS
VL: DIQMTQSPSSLSASVGDRVTITCKASENVVSYVSWYQQKPGKAPKLLIYGASNRYTGVPSRFIGSGSSTDFTLTISSLQPEDFATYYCGQSYSYPLTFGQGTKLEIKR
notes: humanized 14A9, full-length heavy and light chains
B2: hz14A9-2.4 (antibody, human IgG4 S228P, kappa, V domains shown)
VH: B1 VH with A97T
VL: B1 VL
notes: as for B1
B3: hz3F10-3.1 (antibody, human IgG4 S228P, kappa, V domains shown)
VH: QVQLVQSGAEVKKPGSSVKVSCKASGYTFSRYWIEWVRQAPGQGLEWMGEFIPGSDTTNYAQKFQGRVTITADISTSTAYMELSSLRSEDTAVYYCARGGLRRMDYWGQGTLVTVSS
VL: DIQMTQSPSSLSASVGDRVTITCRASSSVSSTYLHWYQQKPGKAPKLLIYTTSTLASGVPSRFSGSGSGTSYTLTISSLQPEDFATYYCQQFSDSTWTFGQGTKLEIKR
notes: humanized 3F10, full-length heavy and light chains
B4: hz3F10-4.1 (antibody, human IgG4 S228P, kappa, V domains shown)
VH: B3 VH
VL: B3 VL with D94E
notes: as for B3
B5: hz3F10-4.2 (antibody, human IgG4 S228P, kappa, V domains shown)
VH: B3 VH with D73E, S77N
VL: B3 VL with D94E
notes: as for B3
B6: hz3F10-6.2 (antibody, human IgG4 S228P, kappa, V domains shown)
VH: B3 VH with D73E, S77N
VL: B3 VL with L48W, D94E
notes: as for B3
B7: hz3F10-3.2 (antibody, human IgG4 S228P, kappa, V domains shown)
VH: B3 VH with D73E, S77N
VL: B3 VL
notes: as for B3
B8: hz3F10-6.1 (antibody, human IgG4 S228P, kappa, V domains shown)
VH: B3 VH
VL: B3 VL with L48W, D94E
notes: as for B3
B9: hz16E5-1.2 (antibody, human IgG4 S228P, kappa)
heavy: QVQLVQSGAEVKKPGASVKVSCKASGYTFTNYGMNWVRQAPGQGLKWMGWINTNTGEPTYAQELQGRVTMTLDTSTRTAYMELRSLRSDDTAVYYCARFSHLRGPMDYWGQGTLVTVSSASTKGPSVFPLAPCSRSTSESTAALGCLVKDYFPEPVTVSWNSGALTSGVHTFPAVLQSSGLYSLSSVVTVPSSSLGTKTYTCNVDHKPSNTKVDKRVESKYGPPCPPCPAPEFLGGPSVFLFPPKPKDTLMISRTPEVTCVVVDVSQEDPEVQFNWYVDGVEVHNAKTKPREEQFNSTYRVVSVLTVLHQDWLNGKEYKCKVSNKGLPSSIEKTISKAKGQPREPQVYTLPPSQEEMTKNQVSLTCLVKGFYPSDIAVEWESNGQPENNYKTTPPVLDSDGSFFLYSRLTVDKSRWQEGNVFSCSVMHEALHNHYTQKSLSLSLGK
light: DIQMTQSPSSLSASVGDRVTITCRSSQSLVHSNGYTYLHWYQQKPGKAPKLLIYKVSNRFSGVPSRFSGSGSGTDFTLTISSLQPEDFATYYCSQSTHVPPTFGQGTKLEIKRTVAAPSVFIFPPSDEQLKSGTASVVCLLNNFYPREAKVQWKVDNALQSGNSQESVTEQDSKDSTYSLSSTLTLSKADYEKHKVYACEVTHQGLSSPVTKSFNRGEC
notes: humanized 16E5, full-length heavy and light chains
B10: hz16E5-1.3 (antibody, human IgG4 S228P, kappa)
heavy: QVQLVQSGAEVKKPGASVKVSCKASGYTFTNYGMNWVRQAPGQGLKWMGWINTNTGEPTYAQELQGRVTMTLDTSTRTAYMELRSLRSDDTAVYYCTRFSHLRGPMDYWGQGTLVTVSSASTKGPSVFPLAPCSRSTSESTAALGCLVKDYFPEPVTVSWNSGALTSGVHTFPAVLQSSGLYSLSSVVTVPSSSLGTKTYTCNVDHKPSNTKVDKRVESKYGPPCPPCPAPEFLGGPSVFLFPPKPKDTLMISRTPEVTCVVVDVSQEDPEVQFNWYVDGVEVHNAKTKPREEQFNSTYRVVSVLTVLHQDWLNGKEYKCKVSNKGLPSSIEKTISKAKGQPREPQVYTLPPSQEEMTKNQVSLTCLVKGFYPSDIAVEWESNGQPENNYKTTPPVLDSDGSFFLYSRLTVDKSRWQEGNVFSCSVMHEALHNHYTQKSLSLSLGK
light: B9 light
notes: as for B9
B11: hz16E5-3.2 (antibody, human IgG4 S228P, kappa)
heavy: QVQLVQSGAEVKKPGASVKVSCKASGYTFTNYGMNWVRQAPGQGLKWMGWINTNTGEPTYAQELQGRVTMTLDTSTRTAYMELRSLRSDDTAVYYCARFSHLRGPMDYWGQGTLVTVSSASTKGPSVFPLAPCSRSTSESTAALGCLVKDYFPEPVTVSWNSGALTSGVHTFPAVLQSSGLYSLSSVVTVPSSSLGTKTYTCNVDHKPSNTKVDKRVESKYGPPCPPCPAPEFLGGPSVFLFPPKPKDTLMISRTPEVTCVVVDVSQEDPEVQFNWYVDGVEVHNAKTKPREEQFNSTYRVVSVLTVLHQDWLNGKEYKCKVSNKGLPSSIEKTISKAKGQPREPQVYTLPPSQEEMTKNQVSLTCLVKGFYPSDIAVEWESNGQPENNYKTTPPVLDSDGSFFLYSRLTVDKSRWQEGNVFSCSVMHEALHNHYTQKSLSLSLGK
light: B9 light with I2A
notes: as for B9
B12: hz16E5-1.1 (antibody, human IgG4 S228P, kappa)
heavy: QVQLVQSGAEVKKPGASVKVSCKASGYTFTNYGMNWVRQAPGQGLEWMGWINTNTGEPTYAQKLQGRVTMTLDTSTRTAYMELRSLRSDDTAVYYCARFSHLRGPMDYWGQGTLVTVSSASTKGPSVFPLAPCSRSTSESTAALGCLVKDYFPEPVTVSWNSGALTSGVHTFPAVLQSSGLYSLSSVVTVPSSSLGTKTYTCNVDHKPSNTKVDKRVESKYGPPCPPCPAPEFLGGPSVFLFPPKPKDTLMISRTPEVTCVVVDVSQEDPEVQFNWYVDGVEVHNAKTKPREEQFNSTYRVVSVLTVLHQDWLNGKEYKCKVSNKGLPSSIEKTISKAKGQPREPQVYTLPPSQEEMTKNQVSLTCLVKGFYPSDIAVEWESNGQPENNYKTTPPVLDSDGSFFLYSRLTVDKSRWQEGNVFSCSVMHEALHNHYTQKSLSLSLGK
light: B9 light
notes: as for B9

How the values were obtained:
CD47 on HL60 cells = CD47 on HL60 cells (UniProt Q08722 19-323, limits assumed); assay: cell-based or functional assay
[1] = molecular target: T1, human CD47 protein, His Tag (ACRObiosystems, Cat. No. CD7-H5227) (human, UniProt Q08722 19-139); assay: ELISA, plate coated with CD47-His
T1 construct: bought reagent; also called CD47-His; hCD47-His Tag; not shown: His tag

[2] = molecular target: T2, CD47 on the red cell surface (Homo sapiens (Human), UniProt Q08722 19-323); assay: flow cytometry on fixed red cells, antibody 1 µg/mL
Procedure: (§1) Anticoagulated blood was collected and well mixed with an equal amount of normal saline. The mixture was centrifuged at 2000 rpm/min for 5 min, and the supernatant was removed. […] In the first two washings, the mixture was centrifuged at 2000 rpm/min for 5 min, and in the last washing, the mixture was centrifuged at 2000 rpm/min for 10 min, and the supernatant was removed.

[3] = molecular target: T1, human CD47 protein, His Tag …; assay: ELISA, CD47-His coated, competition with Human-SIRPα-mFc
Procedure: The plate was let stand at 2-8° C. overnight. The wells were aspirated to remove the coating buffer and blocked with 100 μL/well of a blocking solution (PBS with 1% (w/v) bovine serum albumin (BSA, Sigma, Cat. No. B2064-100G)) by incubation at 37° C. for 1 h. The 96-well plate was washed with a washing buffer (PBS with 0.01% (w/v) Tween 20 (Sigma, Cat. No. P9416-100ML)). […] After the 96-well plate was washed with PBS washing buffer, anti-CD47 chimeric antibodies or anti-CD47 humanized antibodies (see Table 8 for chimeric antibodies, and see Table 9 for humanized antibodies) were added. 4-fold dilution was performed with PBS buffer from a starting concentration of 20 μg/mL, with 8 gradients obtained. The plate was incubated at room temperature for 1.5 h. […] After the 96-well plate was washed with PBS buffer, 100 μL/well of a substrate solution TMB (TIANGEN, Cat. No. PA107-01) was added, and the plate was incubated at room temperature for color development for 10 min. 100 μL/well of 1 M H₂SO₄ was added to stop the reaction. Colorimetric signals were generated and read at 450 nm using a multifunctional microplate reader (manufacturer: PerkinElmer; model: EnVision). Data were analyzed using GraphPad Prism5, and EC₅₀ was calculated.

[4] = molecular target: T2, CD47 on the red cell surface; assay: flow cytometry on fixed red cells, antibody 10 µg/mL
Procedure: as §1

[5] = molecular target: T3, human CD47 protein on CHO-K1-CD47 cells (human, UniProt Q08722 19-323); assay: cell binding, CHO-K1-CD47 cells, high content imaging
T3 construct: whole, on cells; also called CHO-K1 cells expressing human CD47 protein
Procedure: A cell binding assay of anti-CD47 antibodies (chimeric or humanized) was performed based on the binding to a CHO-K1 cell line stably expressing CD47. CHO-K1-CD47 cells (CHO-K1 cells expressing human CD47 protein) were added to each well of a 96-well plate (Eppendorf, Cat. No. C030730.119) at 1.2×10⁴ cells per well and incubated with anti-CD47 antibodies (20 μg/mL, 1:4 dilution in PBS) at room temperature for 1-2 h. […] The cells were incubated at room temperature for 30 min. The cells were washed three times with PBS buffer. A nuclear dye Hoechst (Sigma, Cat. No. B2261) was diluted with PBS buffer at a dilution ratio of 1:500 and then added to each well at 100 μL/well for staining for 10 min. The cells were washed 3 times with PBS and analyzed using a high content screening system (manufacturer: PerkinElmer; model: Operetta).

[6] = molecular target: T4, cynomolgus/rhesus macaque CD47 protein, His Tag (ACRObiosystems, Cat. No. CD7-C52H1) (cynomolgus monkey (cynomolgus/rhesus …, UniProt A0A2K5X523 19-141)); assay: Biacore SPR, 25 C, antibody captured on CM5 chip
T4 construct: bought reagent; also called Cynomolgus monkey CD47 protein

[7] = molecular target: T1, human CD47 protein, His Tag …; assay: Biacore SPR, 25 C, antibody captured on CM5 chip
[8] = molecular target: T2, CD47 on the red cell surface; assay: cell-based or functional assay

T4 sequence (A0A2K5X523 entry or part of it limits assumed): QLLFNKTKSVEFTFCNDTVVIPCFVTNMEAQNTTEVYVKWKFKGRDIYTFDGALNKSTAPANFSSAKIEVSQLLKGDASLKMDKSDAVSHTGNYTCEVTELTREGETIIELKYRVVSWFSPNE

Row | Binder | rate of phagocytosis, antibody 1 µg/mL (CD47 on HL60 cells) [%] | rate of phagocytosis, antibody 10 µg/mL (CD47 on HL60 cells) [%] | EC50 [1] [µg/mL] | MFI [2] [MFI] | IC50 [3] [µg/mL] | MFI [4] [MFI] | EC50 [5] [µg/mL] | Kd [6] [nM] | Kd [7] [nM] | red cell agglutination, lowest concentration causing it [8] [µg/mL]
1 | B1 | 71.5 | 74.9 | 0.157 | 2510 | 0.703 | 11000 | 0.499 | 3.07 | 0.204 | 
2 | B2 | 81.7 | 81.7 | 0.339 | 5240 | 0.621 | 15000 | 0.471 | 2 | 8.55 | 
3 | B3 | 50.6 | 58.7 | 0.127 | 6700 | 1.68 | 41400 | 1.12 |  | 1.53 | 3.3
4 | B4 | 50.3 | 58.3 | 0.115 | 5980 | 1.95 | 41900 | 1.16 | 1.62 | 1.42 | 3.3
5 | B5 | 46.2 | 31.7 | 0.181 | 4810 | 1.74 | 45600 | 1.26 | 1.86 | 1.34 | 3.3
6 | B6 | 49.3 | 44.2 | 0.129 | 3440 | 1.84 | 55900 | 1.49 | 1.15 | 0.765 | 
7 | B7 | 47 | 37.1 | 0.166 | 5100 | 1.74 | 45300 | 1.2 | 1.47 | 1.15 | 3.3
8 | B8 | 47.6 | 60.9 | 0.0563 | 7580 | 1.77 | 53000 | 1.18 | 2.47 | 0.592 | 
9 | B9 | 5.1 | 17.8 | 0.16 | 913 | 2.94 | 4730 |  | 2.26 | 9.31 | 3.3
10 | B10 | 3.03 | 4.33 | 0.138 | 894 | 2.32 | 4880 | 18.8 | 2.73 | 15.3 | 3.3
11 | B11 | 3.02 | 2.03 | 0.215 | 860 | 2.05 | 4200 |  | 3.1 | 17.1 | 3.3
12 | B12 | 14.8 | 4.02 | 0.306 | 945 |  | 6460 | 3.87 | 4.77 | 18.9 | 3.3
